Measured values published in US20250339531A1, “DUX4 POLYPEPTIDES AND NUCLEIC ACIDS FOR TREATING INFLAMMATORY AND AUTOIMMUNE CONDITIONS” (Fred Hutchinson Cancer Center, priority 2021, published 2025).

Tested on: proteins that co-immunoprecipitated with DUX4-CTD constructs expressed in MB135 myoblasts
Assay: LC-MS of proteins co-immunoprecipitated with DUX4-CTD (Table 1) and western validation
Type: binding, human
Parameters: key to 4. mL1dL2 + Dox + IFNG / 4. + IFNG mix / 4. longCTD + Dox + IFNG / 3. + IFNg + Dox longCTD / 3. + Dox longCTD / 3. + IFNG longCTD: peptide-spectrum matches (PSMs) per protein
Conditions: for 3. + IFNg + Dox longCTD: experiment 3, IFNg + Dox; for SUM of PSMS: sum over all samples
How it was run: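 FLAG-tagged DUX4-CTD expressed in doxycycline-induced MB135 myoblasts, some also IFNG-treated; nuclear lysates in pH 7.4 NP-40 IP buffer were pre-cleared, then anti-FLAG immunoprecipitated 3 h at 4 °C. For LC-MS, FLAG-peptide elution, in-gel trypsin digest, Orbitrap analysis; proteins with ≥2 PSMs in both experiments categorised and ranked by total PSMs.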

Row | Molecule | 3. + IFNg + Dox longCTD (bait longCTD) | SUM of PSMS | 4. longCTD + Dox + IFNG (LC-MS counts of the listed protein co-immunoprecipitated with DUX4-CTD bait longCTD, experiment 4, Dox + IFNG) | 3. + Dox longCTD (bait longCTD, experiment 3, Dox only) | 4. mL1dL2 + Dox + IFNG (LC-MS value per protein co-immunoprecipitated with DUX4-CTD construct mL1dL2 in MB135 myoblasts, + Dox + IFNG, kind of count not given)
1 | Q3SY84 (protein, UniProt Q3SY84 1-523, looked up, full-length) MSRQFTCKSGAAAKGGFSGCSAVLSGGSSSSFRAGSKGLSGGFGSRSLYSLGGVRSLNVASGSGKSGGYGFGRGRASGFAGSMFGSVALGPVCPTVCPPGGIHQVTVNESLLAPLNVELDPEIQKVRAQEREQIKALNNKFASFIDKVRFLEQQNQVLETKWELLQQLDLNNCKNNLEPILEGYISNLRKQLETLSGDRVRLDSELRNVRDVVEDYKKRYEEEINKRTAAENEFVLLKKDVDAAYANKVELQAKVESMDQEIKFFRCLFEAEITQIQSHISDMSVILSMDNNRNLDLDSIIDEVRTQYEEIALKSKAEAEALYQTKFQELQLAAGRHGDDLKNTKNEISELTRLIQRIRSEIENVKKQASNLETAIADAEQRGDNALKDARAKLDELEGALHQAKEELARMLREYQELMSLKLALDMEIATYRKLLESEECRMSGEFPSPVSISIISSTSGGSVYGFRPSMVSGGYVANSSNCISGVCSVRGGEGRSRGSANDYKDTLGKGSSLSAPSKKTSR | 9 | 30 | – | – | –
2 | P68366 (protein, UniProt P68366 1-448, looked up, full-length) MRECISVHVGQAGVQMGNACWELYCLEHGIQPDGQMPSDKTIGGGDDSFTTFFCETGAGKHVPRAVFVDLEPTVIDEIRNGPYRQLFHPEQLITGKEDAANNYARGHYTIGKEIIDPVLDRIRKLSDQCTGLQGFLVFHSFGGGTGSGFTSLLMERLSVDYGKKSKLEFSIYPAPQVSTAVVEPYNSILTTHTTLEHSDCAFMVDNEAIYDICRRNLDIERPTYTNLNRLISQIVSSITASLRFDGALNVDLTEFQTNLVPYPRIHFPLATYAPVISAEKAYHEQLSVAEITNACFEPANQMVKCDPRHGKYMACCLLYRGDVVPKDVNAAIAAIKTKRSIQFVDWCPTGFKVGINYQPPTVVPGGDLAKVQRAVCMLSNTTAIAEAWARLDHKFDLMYAKRAFVHWYVGEGMEEGEFSEAREDMAALEKDYEEVGIDSYEDEDEGEE | 39 | 69 | 16 | 14 | –
3 | SF3B3 (protein) MFLYNLTLQRATGISFAIHGNFSGTKQQEIVVSRGKILELLRPDPNTGKVHTLLTVEVFGVIRSLMAFRLTGGTKDYIVVGSDSGRIVILEYQPSKNMFEKIHQETFGKSGCRRIVPGQFLAVDPKGRAVMISAIEKQKLVYILNRDAAARLTISSPLEAHKANTLVYHVVGVDVGFENPMFACLEMDYEEADNDPTGEAAANTQQTLTFYELDLGLNHVVRKYSEPLEEHGNFLITVPGGSDGPSGVLICSENYITYKNFGDQPDIRCPIPRRRNDLDDPERGMIFVCSATHKTKSMFFFLAQTEQGDIFKITLETDEDMVTEIRLKYFDTVPVAAAMCVLKTGFLFVASEFGNHYLYQIAHLGDDDEEPEFSSAMPLEEGDTFFFQPRPLKNLVLVDELDSLSPILFCQIADLANEDTPQLYVACGRGPRSSLRVLRHGLEVSEMAVSELPGNPNAVWTVRRHIEDEFDAYIIVSFVNATLVLSIGETVEEVTDSGFLGTTPTLSCSLLGDDALVQVYPDGIRHIRADKRVNEWKTPGKKTIVKCAVNQRQVVIALTGGELVYFEMDPSGQLNEYTERKEMSADVVCMSLANVPPGEQRSRFLAVGLVDNTVRIISLDPSDCLQPLSMQALPAQPESLCIVEMGGTEKQDELGERGSIGFLYLNIGLQNGVLLRTVLDPVTGDLSDTRTRYLGSRPVKLFRVRMQGQEAVLAMSSRSWLSYSYQSRFHLTPLSYETLEFASGFASEQCPEGIVAISTNTLRILALEKLGAVFNQVAFPLQYTPRKFVIHPESNNLIIIETDHNAYTEATKAQRKQQMAEEMVEAAGEDERELAAEMAAAFLNENLPESIFGAPKAGNGQWASVIRVMNPIQGNTLDLVQLEQNEAAFSVAVCRFSNTGEDWYVLVGVAKDLILNPRSVAGGFVYTYKLVNNGEKLEFLHKTPVEEVPAAIAPFQGRVLIGVGKLLRVYDLGKKKLLRKCENKHIANYISGIQTIGHRVIVSDVQESFIWVRYKRNENQLIIFADDTYPRWVTTASLLDYDTVAGADKFGNICVVRLPPNTNDEVDEDPTGNKALWDRGLLNGASQKAEVIMNYHVGETVLSLQKTTLIPGGSESLVYTTLSGGIGILVPFTSHEDHDFFQHVEMHLRSEHPPLCGRDHLSFRSYYFPVKNVIDGDLCEQFNSMEPNKQKNVSEELDRTPPEVSKKLEDIRTRYAF | – | – | – | – | 10
